Biological target: T1, TAT425 polypeptide (Homo sapiens (Human), UniProt O15439 1-1325)
T1 construct: no signal peptide or domain limits are stated; also called TAT425 protein; polypeptide encoded by DNA340411
T1 sequence: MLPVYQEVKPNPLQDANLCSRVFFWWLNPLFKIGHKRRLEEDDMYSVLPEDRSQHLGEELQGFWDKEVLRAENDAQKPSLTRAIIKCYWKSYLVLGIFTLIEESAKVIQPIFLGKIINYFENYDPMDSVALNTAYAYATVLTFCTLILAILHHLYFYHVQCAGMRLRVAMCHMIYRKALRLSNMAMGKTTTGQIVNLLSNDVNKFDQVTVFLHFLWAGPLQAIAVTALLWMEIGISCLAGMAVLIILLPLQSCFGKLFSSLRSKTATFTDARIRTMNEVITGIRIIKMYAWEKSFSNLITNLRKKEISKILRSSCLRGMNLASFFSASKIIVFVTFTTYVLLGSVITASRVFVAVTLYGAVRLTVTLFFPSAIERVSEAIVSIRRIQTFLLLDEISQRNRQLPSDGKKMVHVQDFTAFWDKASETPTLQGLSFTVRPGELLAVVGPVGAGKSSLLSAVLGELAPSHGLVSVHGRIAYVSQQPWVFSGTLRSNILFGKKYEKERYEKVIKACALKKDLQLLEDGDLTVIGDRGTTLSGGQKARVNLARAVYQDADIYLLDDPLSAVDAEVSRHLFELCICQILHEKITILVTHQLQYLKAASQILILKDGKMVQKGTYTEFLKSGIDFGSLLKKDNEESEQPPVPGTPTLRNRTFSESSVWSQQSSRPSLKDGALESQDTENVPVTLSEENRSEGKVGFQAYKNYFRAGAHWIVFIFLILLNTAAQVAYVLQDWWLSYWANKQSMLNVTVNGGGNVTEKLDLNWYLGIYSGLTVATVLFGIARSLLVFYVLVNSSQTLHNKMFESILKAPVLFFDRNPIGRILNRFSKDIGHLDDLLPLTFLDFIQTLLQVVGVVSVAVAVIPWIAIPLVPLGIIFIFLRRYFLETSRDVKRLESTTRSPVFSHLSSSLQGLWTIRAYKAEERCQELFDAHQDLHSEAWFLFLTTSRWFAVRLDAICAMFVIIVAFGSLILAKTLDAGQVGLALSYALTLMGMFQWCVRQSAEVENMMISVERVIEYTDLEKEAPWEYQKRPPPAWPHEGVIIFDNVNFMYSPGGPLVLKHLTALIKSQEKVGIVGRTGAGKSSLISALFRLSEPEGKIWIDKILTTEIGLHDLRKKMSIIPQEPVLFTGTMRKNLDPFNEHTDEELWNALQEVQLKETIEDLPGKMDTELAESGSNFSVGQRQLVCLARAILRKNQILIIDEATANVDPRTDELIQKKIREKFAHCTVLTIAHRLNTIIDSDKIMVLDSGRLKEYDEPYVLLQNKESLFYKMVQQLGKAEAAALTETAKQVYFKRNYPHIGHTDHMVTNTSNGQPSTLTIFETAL
Experiment: Western blot, ELISA, FACS and/or immunohistochemistry on cells expressing TAT425

B1: anti-TAT425 monoclonal antibody 14E7.17.1 (antibody, V domains shown)
VH: QVQLKESGPGLVAPSQSLSITCTVSGFSLTTYGVSWVRQPPGKGLEWLGLIWGDGSINYHSALISRLSISKDNSKSQVFLKLNSLQTDDTATYYCAKGWGGLYVMDYWGQGTSVTVAS
VL: DIQMTQSPASLSASVGETVTITCRSSENIYSYLAWYQQKLGKSPQLLVYNAKTLAEGVPSRFSGSGSGTQFSLKIYSLQSADFGSYYCQHHFGSPPTFGGGTKLESKR
Does B1 bind?
Result: binds

B2: anti-TAT425 monoclonal antibody 2E4.6.1 (antibody, V domains shown)
VH: EVQLQQSGAELVKPGASVKLSCTTSGFNIKDYYMQWVKQRTGQGLEWIGRIDPEDGETKNAPKFQGKATITADTSSNTAYLQLSSLTSEDTAVYFCAREGYYGNGYAMDYWGQGTSVTVSS
VL: DVLMTQTPLSLPVSLGDQASISCRSSQSIVHSNGNTYLDWYLQKPGQSPKLLIYKVSNRFSGVPDRFSGSGSGTDFTLKISRVEAEDLGVYYCFQGSHVPWTFGGGTKLEIKR
Does B2 bind?
Result: binds

B3: anti-TAT425 monoclonal antibody 13H2.28.2 (antibody, V domains shown)
VH: QVQLQQPGAELVRPGASVKLSCKASGYSFTSYWMNWVRQRPGQGLEWIGMIHPSDSETRLNQKFKDKATLTVDKSSSTAYMQLSSPTSDDSAVYFCTREAITAVHFWGHGTTLTVSS
VL: QAVVTQESALTTSPGETVTLTCRSSTGAVTTSNYANWVQEKPDHLFTGLIGGTNNRAPGVPARFSGSLIGDKAALTITGAQTEDEAIYFCALWYSNHWVFGGGTKLTVLG
Does B3 bind?
Result: binds

From patent publication US20130058960A1 (Genentech, published 2013)
